Experimental data published in publication PMC12439145, “Aptamer-based drug delivery for targeted therapy of imatinib-resistant gastrointestinal stromal tumor”.

How the values were obtained:
[1] = molecular target: T1, KIT (recombinant, YEASEN 93764ES80) (UniProt P10721 26-524); assay: SPR; KIT immobilized on CM5 chip; SPR at 25 C, His-KIT on CM5 chip, 50 mM NaOH regeneration; flow cytometry with 250 nM Cy5-aptamer in binding buffer with 1 mg/ml BSA and 1 mM yeast tRNA; salt and pH not given in material; conditions: protein: commercial; tags: His-tag; label: Cy5 in flow cytometry; predicted stem-loop
T1 sequence (P10721 26-524): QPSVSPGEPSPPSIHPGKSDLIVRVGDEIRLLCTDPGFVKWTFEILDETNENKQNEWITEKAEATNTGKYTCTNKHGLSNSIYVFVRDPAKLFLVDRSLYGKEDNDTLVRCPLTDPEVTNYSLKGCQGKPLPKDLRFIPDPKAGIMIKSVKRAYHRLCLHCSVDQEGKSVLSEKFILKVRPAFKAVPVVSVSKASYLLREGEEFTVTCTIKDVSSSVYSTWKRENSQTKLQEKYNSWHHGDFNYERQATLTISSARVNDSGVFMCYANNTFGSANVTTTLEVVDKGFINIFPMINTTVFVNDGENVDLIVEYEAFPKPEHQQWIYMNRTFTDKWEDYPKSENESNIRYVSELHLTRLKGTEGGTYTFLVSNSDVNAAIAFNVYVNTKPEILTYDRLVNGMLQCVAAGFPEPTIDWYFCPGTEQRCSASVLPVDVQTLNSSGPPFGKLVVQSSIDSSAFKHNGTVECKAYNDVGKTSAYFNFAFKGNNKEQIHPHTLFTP

[2] = molecular target: T1, KIT (recombinant, YEASEN 93764ES80); assay: flow cytometry; KIT coated on aldehyde/sulfate latex beads; SPR at 25 C, His-KIT on CM5 chip, 50 mM NaOH regeneration; flow cytometry with 250 nM Cy5-aptamer in binding buffer with 1 mg/ml BSA and 1 mM yeast tRNA; salt and pH not given in material; conditions: protein: commercial; tags: His-tag; label: Cy5 in flow cytometry; predicted stem-loop

In the case of ATTCAAGGGGCCGGGGCAAGGGGGGGGTACCGTGGTAGGACATAGT (ssDNA) [KIT-d], the Kd [1] is reported as 71.1 nM and the Kd [2] is reported as 80.2 nM.

B1: KIT-w (ssDNA)
DNA: GAGGCATACCAGCTTATTCAAGGGGCCGGGGCAAGGGGGGGGTACCGTGGTAGGACATAGTAAGTGCAATCTGCGAA
For B1, the Kd [1] was 84 nM and the Kd [2] was 106 nM.
